Assay: soluble on expression in E. coli; label from the status in PepcDB or PDB records

Sequence | soluble on expression in E. coli
AQGQRRAPLSVVFTEPQVASVGLSLRQIEDLYADQDAANYVVGQVSFEGQGRSRVMGKNKGLLNVYADRTSGEFLGAEMFGPAAEHIGHLLAWARQQQMTVQAMLTMPFYHPVIEEGLRTALRDAQQKLAIEKHDMNEFIMTHDNAMKLVI | not soluble
MWLIILWNAKPDTPLFNFKDEVIKYKTYEPFESSIKRVNTTIKNGSKGKTLTEMINGYRADNDIRDEICNFNILKNKIRDMKNQQGNTMESYF | not soluble
MDGTRTSLDIEEYSDTEVQKNQVLTLEEWQDKWVNGKTAFHQEQGHQLLKKHLDTFLKGKSGLRVFFPLCGKAVEMKWFADRGHSVVGVEISELGIQEFFTEQNLSYSEEPITEIPGTKVFKSSSGNISLYCCSIFDLPRTNIGKFDMIWDRGALVAINPGDRKCYADTMFSLLGKKFQYLLCVLSYDPTKHPGPPFYVPHAEIERLFGKICNIRRLEKVDAFEERHKSWGIDCLFEKLYLLTEK | not soluble
QTIFRVQTPYTHNGYMKTECYAFDFAPDRTLRVLAEAAKVSYKAGKQSESDRKLLGDFLNFCPIISIEGSRMKPYDVNTMLGQLKRAQIEKVVQDGFENGALYNDELLKLTEVELHDFDELKGIIGKTKAMAKSGDIDINHQGLTHEQYEEKERLEKRKKKGLTPEEKKRLDELKAKGDQRREAISILRGISIRMPLMLYGAEMKDEDKELTIDNFANLVDEQSWQEFMPRGVTKAVFRRFKRYYDPDIFREAGKRIREMARMADKFTIEERIGRIASIFSTFRNPDKETVLTPWRVVNMHLGDSIGGYCFMSEDFSTPIALPRYIEHQGITNEVFHPKSIILEINSKSGLYPLYAAYNIYRTRVEEAREKYGDVTRAFALQLWDRTLEENIFVVCKTPMARYITMRTLRGFRDVVTHTEHYPDLIENITSQPDSVVNMLRSGKRFWKINNDENMKIDAIIGNPPYQVMNQGKGNGSDPIYHKFFDLAMVLAPQGTLIHPARFLFNAGKTPKEWNEKMLSDKHYRVVDYWPNSAEVFPTVDVKGGIATSYWNKKMILGPIGMFSAFDELHHILYKVEQTNPLPFSNLVAPRELYRITDELYQEHPDLNGRQSAGHKYSFGANIFDVFPEVFFDEYPQGREEKMACIYGRANKQRCYKWCKRSYITHPENFAKYKVIIPKTNGSGAIGE | not soluble
MSLSRVEETGLGFVGTFESGFTQGTVGVGVDAIGMLGLKLDSGKGRAGTGLFPTGSDGRSQDDYSKGGGAVKFRISDTVLKVGDQFTALPVFATDDSRLLPEIAQGTLITSNEIEGLTLHAGHFTSLTAQEQTNRDSFGLKEANVVGGTYAFTDNLSTSLYYSKVEDYWRKYYANVNWALPISDNQGLVFDFNIYDTKSEGSAEYRAFDGDKLDNRAFSLSGAYNIGAHTFTLAYQKVTGDGDYGYGIDGGGTIFLANSVARSDFNAEDEKSWQARYDLNFAEYGIPGLTFMTRYVRGSDANVAGTSNGKEWERDVDIKYVLQEGPAKDLSFRVRQATYRSSDGVYYDSPSIDELRLIVEYPLNILEGHHHHHH | soluble
MVHEEDFKEGYILGFIEAEGSFSVSIKFQRDVFGGVRLDPVFSITQKNREVLEAIKEHLGIGRIMEKAGQPNTYVYVVDNFNELVKLINFLNKYADFMIVKKRQFLMFREIANGLVNGEHLHINGLKRLVKLAYELTKESEKGYRKYDLNHVLSIIDKWDLGRNVSTSL | soluble
MGSDKIHHHHHHMAGGVSLKYILEQLAEERLGFLVNGHAMRQESQVGDLKVMERKKKLLEKRKVDIIKAKAKAVINHVRVEDDGTTCLSYTIHYEYVCKEQDDSLYIEEHIEERMAFLYDHILISDQEIAKKPAGFHEGTSIIDYSEAEEEREAFGRAFQYDRLGAVQYAEKFWNKRNPAYKNFSDNCTNFISQCLHAGGAPMRGHPNRGSGWWMKQSSWSYSWTVAHSMKMYLSNSKAGLRAVRVKSAEELMPGDVICYDFEGDGRFNHTTIVVAKDKGNMPLVNAQTYDSRMRYWSYEDSTAYTPSIRYAFFHIVDDTTKE | not soluble
MAGHVNGTCAPVIPKVGDEEDGVGQLVANLKEKGTNFVLLKKTPQILELQTILKDRFCGKINDFRYFCRKNLLILNKLLFCLKKRFSWNLDFKNPLIHKFSGQKRHFKRFCQIFSDFESKFRYFHKFPGPKRSTNHSDFVFNADRLMRLVIEECLNHLPFTEHTVTTPTGFKYEGIQFNRGNCGVSLCRSGEAMEVSLRQCCRCIRIGKILIGDEQKVLYARLLPDITSRRVLLLYPTIGSGTTVCKAIEVLKEARVPDENIYLVSLFISPTGLKNITRKYPYITVVASDITSLYPNHFSTSYFGAV | not soluble
MRLIVVSGQSGAGKSVALRVLEDLGYYCVDNLPVSLLTAFIQSVQGSQQNVAVSIDIRNLPKEPSLVQDVLDQLKQNNDVSMLFLDASKETLLKRYSETRRIHPLSLSQSKPSLAQAIELEKQLLGPLKEQADLLLDSSNQSLHELSETVRMRIEGRERKDLVMVFQSFGFKYGLPTDADYVFDVRFLPNPHWEPDLRPLTGLDAPIKSFLEGHSEVMELKQQIQKFFEYWLPMLEKNNRSYLTIAIGCTGGKHRSVYLTQQLGEYFAQLGHQVQLRHTSLEKQQS | not soluble
GSHMECADVPLLTPSSKEMMSQALKATFSGFTKEQQRLGIPKDPRQWTETHVRDWVMWAVNEFSLKGVDFQKFCMSGAALCALGKECFLELAPDFVGDILWEHLEILQKEDVK | soluble
LEDFNVTSKVIELDVRKPTPEAAENLNIGMDEDIYYVKRVRYINGQTLCYEESYYTKSIVTYLNNEIVSHSIFHYIREGLGLKIGFSDLFLHVGQLNEEEAEYLGLEAGLPKLYIESIFHLTNGQPFDYSKISYNYEQSQ | not soluble
TITNILLVGVGGQGILLASEILSEAFMLAGFDVKKSEIHGMSQRGGSVVSHVRYGKEVHSPIVPEGEGDILFGFELMETYRYLPLLRKGGTVVANDLRISPPSVLLGQASYPDDLPDRIRALFPDFLLVDGQHLAAEAGNVRAANTVLLGAVAKQLDIPDECWHKALERMVPPKALDVNRKAFQLGRAL | not soluble
SNAMKESNHLMDTPYSYLIRSIGMKLKTSADARLAELGLNSQQGRMIGYIYENQESGIIQKDLAQFFGRRGASITSMLQGLEKKGYIERRIPENNARQKNIYVLPKGAALVEEFNNIFLEVEESITKGLTKDEQKQLMSILIKVNRSM | soluble
MSIEVGNKLKGKVTGIKKFGAFVELPEGKSGLVHISEVADNYVENVEEHLSVGDEVDVKVLSIADDGKISLSIKKAKDRPRRQHTSKPSHQKPVQKAEDFEKKLSNFLKDSEDKLTSIKRQTESRRGGKGSRR | not soluble
MEDVVLPLKKVLRVATEADYKCVAENGDSCQKAFLLCDEKIRERELDMSLVDVDYTFDRNKIIFYFTAEGRVDFRELVKDLASVFRTRIELRQIGVRDEAKLEHHHHHH | not soluble
MGSDKIHHHHHHMSSEIVIRVKNLSKCFNIYDQPRDRLKQAILPRLQRLFGRPQKSYHKEFWALRNADFEIRRGETVGIIGRNGSGKSTLLQLLCGTLTPTHGDIEVTGKVAALLELGAGFNPEFTGRENVFLSGSFYGLTREQVQERFDRIAAFADIGDHIEQPVKTYSSGMFVRLAFAVIAHVDADILVIDEALSVGDAVFTQKCMRFIRSFQEKGTLLFVSHDMQSVVNLCRNAIWLNAGETRMKGTSKNVSEAYLKYTLQEVYGEEAILLSAAPKESTLDAPMFEEAGPPMLDYEAVASVSSNLFDAKGWKTGDAEIEAVQLESLTGENDGILRGGELVRMVVRARAHQPLERPVIGFMVRDRLGQNLFGENTLSLTALDQARVAAGQMFEGEFVFRLPMLPDGQYSVTASVADGDLHNNVQHHLLHDALIINVASSKVRWGLVGVPFERVTLNCI | not soluble
MSPFMEKTLLLLGVLCCIQVTTALMCYDCNSEFDPRCGDPFEPYSIGEVNCSKQEPLEHLKDKYKPTLCRKTVQKIYGKTRIVRGCGYIPDENTDNKCVRRSGTHDVAAIYCSCTKDLCNGANSPAGQWMMLPLIVAAGLALLLNSRHTIRFQSS | not soluble
MGSDKIHHHHHHMTETLLVTGAAGQLGRGVIRYLMDTHKVPPAKIIATTRNPENVADLAARGVVVRAADFNDATSLENAFKGADRVLIISTSDLDLKTGRRLKQHEAAVAAAKKAGVSHLLYTSMPNPEPVSPVLFAGDHYGTEQAIKASGIAYTIFRNGWYQENLFIALPHAIASGQWYTSAGDGRIAHGSRDDMAAAIAAGLASGSTDSKTYTLTGPQAYTTAEIAALVSEVTGKPLEVIQLPDEALTEGVKAAGVPEEFARVIVSFDANTRSGRIAMATDAVETLSGRKPRTLKQFLEANKAALAG | not soluble
MDRHTTEGWRRWAARLGAAAMALLLAACAAPRQQAASVDELPSWNDGPSRTAIVEFVRAVTRSGGPDFVAADERIAVFDNDGTLWSEQPMYFQMLFALDRVKSMAPRHPDWARRQPFKAALQDDHAALAKGGDVALMKIVGATHTDMSTDTFTRSVRYWASTARHPRFDRLYTELTFAPMRELLDYLRAHGFKTYIVSGGETEFMRSWTQQAYGIPPEQVIGSSFVTTYGVRDGEPTLWRHGKLEFNDDGPGKPVAIQRYIGRRPILAFGNSDGDLQMLQWTAAGDGKRFAGLVHHTDAQREWAYDRDSRIGRLDRALDEARRQDWTVVDMKTEWKRVYAFEQP | not soluble
MRKKISIIGAGFVGSTTAHWLAAKELGDIVLLDIVEGVPQGKALDLYEASPIEGFDVRVTGTNNYADTANSDVIVVTSGAPRKPGMSREDLIKVNADITRACISQAAPLSPNAVIIMVNNPLDAMTYLAAEVSGFPKERVIGQAGVLDAARYRTFIAMEAGVSVKDVQAMLMGGHGDEMVPLPRFSTISGIPVSEFIAPDRLAQIVERTRKGGGEIVNLLKTGSAYYAPAAATAQMVEAVLKDKKRVMPVAAYLTGQYGLNDIYFGVPVILGAGGVEKILELPLNEEEMALLNASAKAVRATLDTLKSL | soluble
MAHHHHHHMLLGSFADFSVNGASTVDMPLAPSLEYVARMLRELPSVLHAEQWPTQFVCDSNAPLSGSGTELRNAEAITSSSSSVLERTLLGISPLSGTDAAVSQFLERLGGATTSLALRSLFDLCHADVWNLLGVAATSPISRLAALEKLAAAANGSASAPGPCRPVLDAETLEFKDILVWAWNRQYGCVGLRRLFFEMQVLFYRYAMNAQATSKQSRAGNGATLRDVCELWAVWRLSLQKWSAAFLAKLGTHEQTADVLDASTLRADACDLMRQHAIAVSGLAEVQRMALRVITKLQTVDAKGWFAVPAFDLVNVDFTSVRYWISSPVFARKSKREAYRSLCRTLERMVDSCVQKYGPTHAFSDVITTVRQQLVDVARAEGLL | not soluble
MTLQEQIMKALHVQPVIDPKAEIRKRVDFLKDYVKKTGAKGFVLGISGGQDSTLAGRLAQLAVEEIRNEGGNATFIAVRLPYKVQKDEDDAQLALQFIQADQSVAFDIASTVDAFSNQYENLLDESLTDFNKGNVKARIRMVTQYAIGGQKGLLVIGTDHAAEAVTGFFTKFGDGGADLLPLTGLTKRQGRALLQELGADERLYLKMPTADLLDEKPGQADETELGITYDQLDDYLEGKTVPADVAEKIEKRYTVSEHKRQVPASMFDDWWKLAAALEHHHHHH | soluble
MNGQAKIAEPRRLYQQIADQIRELIDVGEFLPGTRLPAERELAQKLGVSRPSLREALIALEIDNTVEIRMGSGVYVSTEALQTTHHTKSLGDSPSELMQARAALEGATIVLAANRMTDETIAALRQILNTMQKEIEAGRKPLDQDRLFHVTIAEQSGNSVLARLVANLFDERHSPISAQLRVKFEDRDTWTRALQEHEAILAALELKDPLLAQAAMHIHLEGSKRRWVDS | soluble
MKHHHHHHHHGGLVPRGSHGMTKKIVAIWAQDEEGVIGKDNRLPWYLPAELQHFKETTLNHAILMGRVTFDGMGRRLLPKRETLILTRNPEEKIDGVATFHDVQSVLDWYSAQEKNLYIVGGKQIFQAFEPYLDEVIVTHIHARVEGDTYFPAEFDLSLFETVSSKFYTKDEKNPYDFTIQYRKRKEVLE | soluble

— the DeepSol protein solubility set
